We go through six molecules from patent publication US20150017095A1 (AbbVie / Abbott, published 2015).

Assay [1] has as its target T1, Recombinant Human IL-1β (human, UniProt P01584 117-269). Briefly: cell-based or functional assay.
Assay [2] has as its target T1, Recombinant Human IL-1β. The assay can be described thus: direct bind ELISA, antigen coated on plate (C-terminal VD). As for the experimental part:
(§1) Enzyme Linked Immunosorbent Assays to screen for antibodies that bind a desired target antigen were performed as follows. High bind ELISA plates (Corning Costar #3369, Acton, Mass.) were coated with 100 μL/well of 10 μg/ml of desired target antigen (R&D Systems, Minneapolis, Minn.) or desired target antigen extra-cellular domain/FC fusion protein (R&D Systems, Minneapolis, Minn.) or monoclonal mouse anti-polyHistidine antibody (R&D Systems # MAB050, Minneapolis, Minn.) in phosphate buffered saline (10×PBS, Abbott Bioresearch Center, Media Prep# MPS-073, Worcester, Mass.) overnight at 4° C. Plates were washed four times with PBS containing 0.02% Tween 20. Plates were blocked by the addition of 300 μL/well blocking solution (non-fat dry milk powder, various retail suppliers, diluted to 2% in PBS) for ½ hour at room temperature. Plates were washed four times after blocking with PBS containing 0.02% Tween 20.
(§2) Plates were washed 4 times with PBS containing 0.02% Tween 20.
(§3) One hundred microliters of enhanced TMB solution (Neogen Corp. #308177, K Blue, Lexington, Ky.) was added to each well and incubated for 10 minutes at room temperature. The reaction was stopped by the addition of 50 μL 1N sulphuric acid.
In general terms: An ELISA detects its analyte on a solid surface through an enzyme-linked reagent.

Assay [3] deals with T2, Recombinant Human VEGF (human, UniProt P15692-4 27-191).
T2 construct: also called VEGF165
The assay is described as above. As for the experimental part: as §1, §2, §3

In assay [4] the target is T2, Recombinant Human VEGF. Briefly: BIACORE SPR, DVD-Ig captured, antigen in flow (C-terminal VD). On the procedure:
(§4) The BIACORE assay (Biacore, Inc, Piscataway, N.J.) determines the affinity of antibodies or DVD-Ig with kinetic measurements of on-rate and off-rate constants. […] All chemicals are obtained from Biacore® AB (Uppsala, Sweden) or otherwise from a different source as described in the text. For example, approximately 5000 RU of goat anti-mouse IgG, (Fcγ), fragment specific polyclonal antibody (Pierce Biotechnology Inc, Rockford, Ill.) diluted in 10 mM sodium acetate (pH 4.5) is directly immobilized across a CM5 research grade biosensor chip using a standard amine coupling kit according to manufacturer's instructions and procedures at 25 μg/ml. Unreacted moieties on the biosensor surface are blocked with ethanolamine. Modified carboxymethyl dextran surface in flowcell 2 and 4 is used as a reaction surface. Unmodified carboxymethyl dextran without goat anti-mouse IgG in flow cell 1 and 3 is used as the reference surface. For kinetic analysis, rate equations derived from the 1:1 Langmuir binding model are fitted simultaneously to association and dissociation phases of all eight injections (using global fit analysis) with the use of Biaevaluation 4.0.1 software. Purified antibodies or DVD-Ig are diluted in HEPES-buffered saline for capture across goat anti-mouse IgG specific reaction surfaces. Antibodies or DVD-Ig to be captured as a ligand (25 μg/m) are injected over reaction matrices at a flow rate of 5 μl/min. The association and dissociation rate constants, kₒₙ (M⁻¹s⁻¹) and koff (s⁻¹) are determined under a continuous flow rate of 25 μl/min. Rate constants are derived by making kinetic binding measurements at different antigen concentrations ranging from 10-200 nM. The equilibrium dissociation constant (M) of the reaction between antibodies or DVD-Igs and the target antigen is then calculated from the kinetic rate constants by the following formula: KD=koff/kₒₙ. Binding is recorded as a function of time and kinetic rate constants are calculated.
(Surface plasmon resonance follows binding to a sensor surface in real time, without labels.)

Assay [5] has as its target T3, Recombinant Human IL-17 (human, UniProt Q16552 20-155, limits assumed). Briefly: cell-based or functional assay.
Assay [6] concerns the target T3, Recombinant Human IL-17. Briefly: direct bind ELISA, antigen coated on plate (C-terminal VD). As for the experimental part: as §1, §2, §3
In assay [7] the target is T3, Recombinant Human IL-17. Briefly: BIACORE SPR, DVD-Ig captured, antigen in flow (C-terminal VD). As for the experimental part: as §4
The target of assay [8] is T4, Recombinant Human IL-6 sR (human, UniProt P08887 20-358).
T4 construct: domain: IL-6 sR; Bought reagent; also called IL-6R
T4 sequence (looked up): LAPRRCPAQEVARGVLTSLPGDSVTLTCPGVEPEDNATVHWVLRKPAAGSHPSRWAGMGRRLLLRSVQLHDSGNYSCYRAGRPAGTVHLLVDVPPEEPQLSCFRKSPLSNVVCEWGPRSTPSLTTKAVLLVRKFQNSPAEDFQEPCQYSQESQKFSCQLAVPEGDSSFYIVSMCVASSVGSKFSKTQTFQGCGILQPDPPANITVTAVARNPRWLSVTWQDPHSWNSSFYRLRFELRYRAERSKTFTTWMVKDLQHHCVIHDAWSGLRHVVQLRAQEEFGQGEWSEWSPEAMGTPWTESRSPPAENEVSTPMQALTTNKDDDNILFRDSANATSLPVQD
Briefly: direct bind ELISA, antigen coated on plate (N-terminal VD). On the procedure: as §1, §2, §3

Assay [9] addresses T4, Recombinant Human IL-6 sR. The assay can be described thus: BIACORE SPR, DVD-Ig captured, antigen in flow (N-terminal VD). As for the experimental part: as §4
Assay [10] deals with T3, Recombinant Human IL-17. The assay can be described thus: direct bind ELISA, antigen coated on plate (N-terminal VD). On the procedure: as §1, §2, §3
Assay [11] has as its target T3, Recombinant Human IL-17. The assay can be described thus: BIACORE SPR, DVD-Ig captured, antigen in flow (N-terminal VD). On the procedure: as §4
Assay [12] addresses T1, Recombinant Human IL-1β. The assay can be described thus: direct bind ELISA, antigen coated on plate (N-terminal VD). On the procedure: as §1, §2, §3
The target in assay [13] is T1, Recombinant Human IL-1β. The assay can be described thus: BIACORE SPR, DVD-Ig captured, antigen in flow (N-terminal VD). On the procedure: as §4

T2 sequence (P15692 other isoform, or with tags, fused parts or gaps limits assumed): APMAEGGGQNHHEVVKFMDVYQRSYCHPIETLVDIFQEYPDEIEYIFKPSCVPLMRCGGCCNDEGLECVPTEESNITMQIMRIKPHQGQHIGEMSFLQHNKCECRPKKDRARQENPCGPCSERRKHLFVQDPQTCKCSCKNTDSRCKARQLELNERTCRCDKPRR
T3 sequence (Q16552 20-155 limits assumed): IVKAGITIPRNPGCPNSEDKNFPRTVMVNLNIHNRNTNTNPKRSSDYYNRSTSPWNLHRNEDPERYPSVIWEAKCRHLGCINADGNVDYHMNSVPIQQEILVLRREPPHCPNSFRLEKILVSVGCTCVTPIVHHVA

B1: DVD157 (PGE2 / IL-1b DVD-Ig) (bispecific antibody)
VH: EVQLVQSGAEVKKPGASVKVSCKASGYTFTKYWLGWVRQAPGQGLEWMGDIYPGYDYTHYNEKFKDRVTLTTDTSTSTAYMELRSLRSDDTAVYYCARSDGSSTYWGQGTLVTVSSASTKGPQVQLVESGGGVVQPGRSLRLSCAASGFTFSVYGMNWVRQAPGKGLEWVAIIWYDGDNQYYADSVKGRFTISRDNSKNTLYLQMNGLRAEDTAVYYCARDLRTGPFDYWGQGTLVTVSS
VL: DVLMTQTPLSLPVTPGEPASISCTSSQNIVHSNGNTYLEWYLQKPGQSPQLLIYKVSNRFSGVPDRFSGSGSGTDFTLKISRVEAEDVGVYYCFQVSHVPYTFGGGTKVEIKRTVAAPEIVLTQSPDFQSVTPKEKVTITCRASQSIGSSLHWYQQKPDQSPKLLIKYASQSFSGVPSRFSGSGSGTDFTLTINSLEAEDAAAYYCHQSSSLPFTFGPGTKVDIKR
notes: Outer domain is AB048 (PGE2), inner domain is AB032 (IL-1b); also called VD157H; VD157L
B1: the “C-terminal VD IL-1β Neutralization Assay EC50 nM (IL-8 release by MRC5 cells)” value in assay [1] worked out at 3.22 nM. Also, the half-maximal effective concentration (EC50) (in general, the concentration at which the effect is half-maximal) in assay [2] amounted to 2480 nM.

B2: DVD161 (PGE2 / VEGF DVD-Ig) (bispecific antibody)
VH: EVQLVQSGAEVKKPGASVKVSCKASGYTFTKYWLGWVRQAPGQGLEWMGDIYPGYDYTHYNEKFKDRVTLTTDTSTSTAYMELRSLRSDDTAVYYCARSDGSSTYWGQGTLVTVSSASTKGPEVQLVESGGGLVQPGGSLRLSCAASGYTFTNYGMNWVRQAPGKGLEWVGWINTYTGEPTYAADFKRRFTFSLDTSKSTAYLQMNSLRAEDTAVYYCAKYPHYYGSSHWYFDVWGQGTLVTVSS
VL: DVLMTQTPLSLPVTPGEPASISCTSSQNIVHSNGNTYLEWYLQKPGQSPQLLIYKVSNRFSGVPDRFSGSGSGTDFTLKISRVEAEDVGVYYCFQVSHVPYTFGGGTKVEIKRTVAAPDIQMTQSPSSLSASVGDRVTITCSASQDISNYLNWYQQKPGKAPKVLIYFTSSLHSGVPSRFSGSGSGTDFTLTISSLQPEDFATYYCQQYSTVPWTFGQGTKVEIKR
notes: Outer domain is AB048 (PGE2), inner domain is AB014 (VEGF); also called VD161H; VD161L
As for B2, in assay [3], the EC50 turned out to be 391 nM. Besides, in [4], the Kd (in general, the free concentration of one partner at which half of the binding sites on the other are occupied at equilibrium, for simple one-to-one binding) was determined as 0.755 nM; the koff (commonly the first-order rate constant of dissociation) was 0.000209 s⁻¹; the kon (as a rule, the rate constant with which the complex forms) came out at 277000 M⁻¹ s⁻¹.

B3: DVD155 (PGE2 / IL-17A DVD-Ig) (bispecific antibody)
VH: EVQLVQSGAEVKKPGASVKVSCKASGYTFTKYWLGWVRQAPGQGLEWMGDIYPGYDYTHYNEKFKDRVTLTTDTSTSTAYMELRSLRSDDTAVYYCARSDGSSTYWGQGTLVTVSSASTKGPEVQLVESGGGLVQPGGSLRLSCAASGFTFSNYWMNWVRQAPGKGLEWVAAINQDGSEKYYVGSVKGRFTISRDNAKNSLYLQMNSLRVEDTAVYYCVRDYYDILTDYYIHYWYFDLWGRGTLVTVSS
VL: not shown
notes: Outer domain is AB048 (PGE2), inner domain is AB029 (IL-17A); also called VD155H; VD155L
As for B3, the “C-terminal VD IL-17 Neutralization Assay EC50 nM (IL-6 secretion by HS27 cells)” value in assay [5] was found to be 5.7e-05 nM. Moreover, the EC50 in assay [6] is 248 nM. Also, in [7], the Kd was 3.37 nM, the koff was determined as 0.000125 s⁻¹ and the kon amounted to 37000 M⁻¹ s⁻¹.

B4: DVD152 (IL-6R / PGE2 DVD-Ig) (bispecific antibody)
VH: EVQLQESGPGLVRPSQTLSLTCTVSGYSITSDHAWSWVRQPPGRGLEWIGYISYSGITTYNPSLKSRVTMLRDTSKNQFSLRLSSVTAADTAVYYCARSLARTTAMDYWGQGSLVTVSSASTKGPEVQLVQSGAEVKKPGASVKVSCKASGYTFTKYWLGWVRQAPGQGLEWMGDIYPGYDYTHYNEKFKDRVTLTTDTSTSTAYMELRSLRSDDTAVYYCARSDGSSTYWGQGTLVTVSS
VL: DIQMTQSPSSLSASVGDRVTITCRASQDISSYLNWYQQKPGKAPKLLIYYTSRLHSGVPSRFSGSGSGTDFTFTISSLQPEDIATYYCQQGNTLPYTFGQGTKVEIKRTVAAPDVLMTQTPLSLPVTPGEPASISCTSSQNIVHSNGNTYLEWYLQKPGQSPQLLIYKVSNRFSGVPDRFSGSGSGTDFTLKISRVEAEDVGVYYCFQVSHVPYTFGGGTKVEIKR
notes: Outer domain is AB054 (IL-6R), inner domain is AB048 (PGE2); also called VD152H; VD152L
In the case of B4, the concentration giving a half-maximal response (EC50) in [8] amounted to 1.62 nM. In [9], the Kd was found to be 0.275 nM, the koff amounted to 0.000115 s⁻¹ and the kon is 420000 M⁻¹ s⁻¹.

B5: DVD156 (IL-17A / PGE2 DVD-Ig) (bispecific antibody)
VH: EVQLVESGGGLVQPGGSLRLSCAASGFTFSNYWMNWVRQAPGKGLEWVAAINQDGSEKYYVGSVKGRFTISRDNAKNSLYLQMNSLRVEDTAVYYCVRDYYDILTDYYIHYWYFDLWGRGTLVTVSSASTKGPEVQLVQSGAEVKKPGASVKVSCKASGYTFTKYWLGWVRQAPGQGLEWMGDIYPGYDYTHYNEKFKDRVTLTTDTSTSTAYMELRSLRSDDTAVYYCARSDGSSTYWGQGTLVTVSS
VL: not shown
notes: Outer domain is AB029 (IL-17A), inner domain is AB048 (PGE2); also called VD156H; VD156L
Regarding B5, the “N-terminal VD IL-17 Neutralization Assay EC50 nM (IL-6 secretion by HS27 cells)” value in assay [5] worked out at 0.2 nM. The EC50 in [10] is 0.62 nM. Further, in [11], the Kd is not above 0.0115 nM, the koff is less than 1e-06 s⁻¹ and the kon worked out at 86800 M⁻¹ s⁻¹.

B6: DVD158 (IL-1b / PGE2 DVD-Ig) (bispecific antibody)
VH: QVQLVESGGGVVQPGRSLRLSCAASGFTFSVYGMNWVRQAPGKGLEWVAIIWYDGDNQYYADSVKGRFTISRDNSKNTLYLQMNGLRAEDTAVYYCARDLRTGPFDYWGQGTLVTVSSASTKGPEVQLVQSGAEVKKPGASVKVSCKASGYTFTKYWLGWVRQAPGQGLEWMGDIYPGYDYTHYNEKFKDRVTLTTDTSTSTAYMELRSLRSDDTAVYYCARSDGSSTYWGQGTLVTVSS
VL: EIVLTQSPDFQSVTPKEKVTITCRASQSIGSSLHWYQQKPDQSPKLLIKYASQSFSGVPSRFSGSGSGTDFTLTINSLEAEDAAAYYCHQSSSLPFTFGPGTKVDIKRTVAAPDVLMTQTPLSLPVTPGEPASISCTSSQNIVHSNGNTYLEWYLQKPGQSPQLLIYKVSNRFSGVPDRFSGSGSGTDFTLKISRVEAEDVGVYYCFQVSHVPYTFGGGTKVEIKR
notes: Outer domain is AB032 (IL-1b), inner domain is AB048 (PGE2); also called VD158H; VD158L
As for B6, the “N-terminal VD IL-1β Neutralization Assay EC50 nM (IL-8 release by MRC5 cells)” value in assay [1] came to 0.11 nM. The EC50 in [12] came to 17.6 nM. Besides, in [13], the Kd is 0.0387 nM, the koff came to 3.84e-05 s⁻¹ and the kon stood at 992000 M⁻¹ s⁻¹.
